The text below walks through data of PMC10942789, “Biomolecular condensates can both accelerate and suppress aggregation of α-synuclein” (Science Advances, 2022).

This series concerns the molecule itself. In words: thioflavin T aggregation kinetics + transmission electron microscopy of fibrils; self-association into amyloid fibrils; 40 uM FL-αSyn or αSyn-108, or 160 uM NACore; 50 mM Hepes (pH 7.4), 100 mM NaCl, 100 uM EDTA, 20 uM ThT, 37°C, continuous linear shaking; without coacervates (reference), with supernatant or with coacervate droplets.

B1: NACore peptide (αSyn-68-78) (peptide)
peptide: GAVVTGVTAVA
notes: alpha-synuclein residues 68-78, from the non-amyloid-β component; source: synthetic peptide; bought: CASLO ApS (Denmark)
B1: the binding result is “binds”.
